Patent US20220033460A1 (REPERTOIRE IMMUNE MEDICINES, published 2022)

Target: […] / HLA-B*07:02 tetramer (human; SARS-CoV-2)
Test: DNA-barcoded tetramer staining, single-cell sequencing

B1: TCR_11 (TCR, V domains shown)
V domain 1: EDQVTQSPEALRLQEGESSSLNCSYTVSGLRGLFWYRQDPGKGPEFLFTLYSAGEEKEKERLKATLTKKESFLHITAPKPEDSATYLCAVQAPMSARGSQGNLIFGKGTKLSVKP
V domain 2: GAGVSQSPSNKVTEKGKDVELRCDPISGHTALYWYRQSLGQGLEFLIYFQGNSAPDKSGLPSDRFSAERTGGSVSTLTIQRTQQEDSAVYLCASSSKGGGQQTQYFGPGTRLLVLE
No. of Cells: 10 cells
